In IntAct's records for PubMed 29892012:

B1: E3 ubiquitin-protein ligase LNX (Homo sapiens), Q8TBB1 (parent)
chain: MNQPESANDPEPLCAVCGQAHSLEENHFYSYPEEVDDDLICHICLQALLDPLDTPCGHTYCTLCLTNFLVEKDFCPMDRKPLVLQHCKKSSILVNKLLNKLLVTCPFREHCTQVLQRCDLEHHFQTSCKGASHYGLTKDRKRRSQDGCPDGCASLTATAPSPEVSAAATISLMTDEPGLDNPAYVSSAEDGQPAISPVDSGRSNRTRARPFERSTIRSRSFKKINRALSVLRRTKSGSAVANHADQGRENSENTTAPEVFPRLYHLIPDGEITSIKINRVDPSESLSIRLVGGSETPLVHIIIQHIYRDGVIARDGRLLPGDIILKVNGMDISNVPHNYAVRLLRQPCQVLWLTVMREQKFRSRNNGQAPDAYRPRDDSFHVILNKSSPEEQLGIKLVRKVDEPGVFIFNVLDGGVAYRHGQLEENDRVLAINGHDLRYGSPESAAHLIQASERRVHLVVSRQVRQRSPDIFQEAGWNSNGSWSPGPGERSNTPKPLHPTITCHEKVVNIQKDPGESLGMTVAGGASHREWDLPIYVISVEPGGVISRDGRIKTGDILLNVDGVELTEVSRSEAVALLKRTSSSIVLKALEVKEYEPQEDCSSPAALDSNHNMAPPSDWSPSWVMWLELPRCLYNCKDIVLRRNTAGSLGFCIVGGYEEYNGNKPFFIKSIVEGTPAYNDGRIRCGDILLAVNGRSTSGMIHACLARLLKELKGRITLTIVSWPGTFL

Variants of: B1
Conditions: with srsf1_human SRSF1, Q07955
Sequence of srsf1_human SRSF1, Q07955 (Q07955 whole entry): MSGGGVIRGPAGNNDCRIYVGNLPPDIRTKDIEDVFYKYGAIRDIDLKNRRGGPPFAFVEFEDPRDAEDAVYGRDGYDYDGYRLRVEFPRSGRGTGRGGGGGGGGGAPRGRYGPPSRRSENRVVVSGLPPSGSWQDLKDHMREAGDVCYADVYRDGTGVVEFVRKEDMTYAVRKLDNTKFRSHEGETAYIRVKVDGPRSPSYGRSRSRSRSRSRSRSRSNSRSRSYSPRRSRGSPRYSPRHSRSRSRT

Variant	effect of a mutation on the interaction
E295K	disrupting interaction strength

Variants of: B1
Conditions: with pmgt1_human POMGNT1, Q8WZA1
Sequence of pmgt1_human POMGNT1, Q8WZA1 (Q8WZA1 whole entry): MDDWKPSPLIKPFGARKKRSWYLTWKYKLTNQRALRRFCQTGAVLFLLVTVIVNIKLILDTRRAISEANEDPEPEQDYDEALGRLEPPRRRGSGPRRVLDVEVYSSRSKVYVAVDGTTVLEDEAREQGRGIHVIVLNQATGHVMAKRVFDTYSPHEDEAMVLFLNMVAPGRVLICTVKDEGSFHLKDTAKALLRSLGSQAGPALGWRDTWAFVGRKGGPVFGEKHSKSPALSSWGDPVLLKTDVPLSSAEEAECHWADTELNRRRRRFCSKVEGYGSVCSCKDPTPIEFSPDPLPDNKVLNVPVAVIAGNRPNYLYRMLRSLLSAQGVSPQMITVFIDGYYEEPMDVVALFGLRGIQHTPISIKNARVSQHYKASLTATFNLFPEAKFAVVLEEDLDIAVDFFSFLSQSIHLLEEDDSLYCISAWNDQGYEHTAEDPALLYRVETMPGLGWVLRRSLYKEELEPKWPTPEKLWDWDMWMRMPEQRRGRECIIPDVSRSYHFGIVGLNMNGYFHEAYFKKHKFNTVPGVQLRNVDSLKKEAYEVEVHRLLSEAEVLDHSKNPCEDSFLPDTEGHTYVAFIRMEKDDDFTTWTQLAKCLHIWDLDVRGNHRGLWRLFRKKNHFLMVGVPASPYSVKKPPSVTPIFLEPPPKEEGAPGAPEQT

Variant	effect of a mutation on the interaction
E295K	disrupting interaction strength

Variants of: B1
Conditions: with nagk_human NAGK

Variant	effect of a mutation on the interaction
E295K	disrupting interaction strength

Variants of: B1
Conditions: with cep72_human CEP72, Q9P209

Variant	effect of a mutation on the interaction
E295K	disrupting interaction strength

Variants of: B1
Conditions: with mk09_human MAPK9, P45984

Variant	effect of a mutation on the interaction
E295K	with no effect

Variants of: B1
Conditions: with grb2_human GRB2, P62993
Sequence of grb2_human GRB2, P62993 (P62993 whole entry, looked up): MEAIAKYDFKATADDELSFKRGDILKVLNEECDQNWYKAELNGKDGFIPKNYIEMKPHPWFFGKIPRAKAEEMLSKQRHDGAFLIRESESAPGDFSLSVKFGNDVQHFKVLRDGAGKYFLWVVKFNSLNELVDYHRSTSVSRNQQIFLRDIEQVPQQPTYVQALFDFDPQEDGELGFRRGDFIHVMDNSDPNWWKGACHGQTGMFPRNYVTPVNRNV

Variant	effect of a mutation on the interaction
E295K	disrupting interaction strength

Variants of: B1
Conditions: with ldoc1_human LDOC1, O95751
Sequence of ldoc1_human LDOC1, O95751 (O95751 whole entry): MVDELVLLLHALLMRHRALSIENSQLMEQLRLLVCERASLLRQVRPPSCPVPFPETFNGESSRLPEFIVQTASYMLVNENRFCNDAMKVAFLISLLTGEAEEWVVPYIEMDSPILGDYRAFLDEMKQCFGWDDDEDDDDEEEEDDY

Variant	effect of a mutation on the interaction
E295K	disrupting interaction strength

Variants of: B1
Conditions: with kcd17_human KCTD17, Q8N5Z5
Sequence of kcd17_human KCTD17, Q8N5Z5 (Q8N5Z5 whole entry): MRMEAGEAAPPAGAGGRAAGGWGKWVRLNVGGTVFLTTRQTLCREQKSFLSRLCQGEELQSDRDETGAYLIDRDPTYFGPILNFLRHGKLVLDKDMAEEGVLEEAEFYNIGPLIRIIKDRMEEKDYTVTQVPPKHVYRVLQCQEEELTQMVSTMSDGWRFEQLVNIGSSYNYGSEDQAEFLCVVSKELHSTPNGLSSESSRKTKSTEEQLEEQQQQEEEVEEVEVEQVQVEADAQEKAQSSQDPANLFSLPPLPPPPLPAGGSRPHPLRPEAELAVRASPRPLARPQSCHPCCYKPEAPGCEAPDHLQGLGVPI

Variant	effect of a mutation on the interaction
E295K	disrupting interaction strength

Variants of: B1
Conditions: with rpia_human RPIA

Variant	effect of a mutation on the interaction
E295K	disrupting interaction strength

Variants of: B1
Conditions: with tera_human VCP

Variant	effect of a mutation on the interaction
E295K	disrupting interaction strength

Variants of: B1
Conditions: with KRT15, P19012
Sequence of KRT15, P19012 (P19012 whole entry): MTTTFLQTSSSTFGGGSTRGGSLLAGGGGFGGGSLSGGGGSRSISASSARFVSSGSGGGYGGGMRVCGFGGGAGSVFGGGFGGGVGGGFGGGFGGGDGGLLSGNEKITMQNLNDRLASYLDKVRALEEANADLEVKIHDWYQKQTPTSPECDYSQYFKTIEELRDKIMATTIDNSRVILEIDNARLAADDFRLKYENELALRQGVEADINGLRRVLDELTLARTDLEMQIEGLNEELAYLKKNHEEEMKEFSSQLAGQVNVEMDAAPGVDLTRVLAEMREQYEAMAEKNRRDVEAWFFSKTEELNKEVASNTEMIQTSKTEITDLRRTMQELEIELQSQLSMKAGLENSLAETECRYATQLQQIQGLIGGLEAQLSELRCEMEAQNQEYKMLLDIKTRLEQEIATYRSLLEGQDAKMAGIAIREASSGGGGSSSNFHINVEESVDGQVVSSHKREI

Variant	effect of a mutation on the interaction
E295K	disrupting interaction strength

Variants of: B1
Conditions: with rop1a_human ROPN1, Q9HAT0
Sequence of rop1a_human ROPN1, Q9HAT0 (Q9HAT0 whole entry): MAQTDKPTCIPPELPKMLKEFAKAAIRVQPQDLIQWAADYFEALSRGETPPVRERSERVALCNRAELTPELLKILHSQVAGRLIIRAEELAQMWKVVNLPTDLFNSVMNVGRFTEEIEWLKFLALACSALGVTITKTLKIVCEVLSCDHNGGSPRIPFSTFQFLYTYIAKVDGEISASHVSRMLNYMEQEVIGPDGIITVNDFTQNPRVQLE

Variant	effect of a mutation on the interaction
E295K	disrupting interaction strength

Variants of: B1
Conditions: with nt2na_human NOTCH2NLA

Variant	effect of a mutation on the interaction
E295K	disrupting interaction strength

Variants of: B1
Conditions: with mt21a_human METTL21A

Variant	effect of a mutation on the interaction
E295K	disrupting interaction strength

Variants of: B1
Conditions: with zbt8a_human ZBTB8A

Variant	effect of a mutation on the interaction
E295K	disrupting interaction strength

Variants of: B1
Conditions: with dnpep_human DNPEP

Variant	effect of a mutation on the interaction
E295K	disrupting interaction strength

Variants of: B1
Conditions: with clk2_human CLK2, P49760
Sequence of clk2_human CLK2, P49760 (P49760 whole entry, looked up): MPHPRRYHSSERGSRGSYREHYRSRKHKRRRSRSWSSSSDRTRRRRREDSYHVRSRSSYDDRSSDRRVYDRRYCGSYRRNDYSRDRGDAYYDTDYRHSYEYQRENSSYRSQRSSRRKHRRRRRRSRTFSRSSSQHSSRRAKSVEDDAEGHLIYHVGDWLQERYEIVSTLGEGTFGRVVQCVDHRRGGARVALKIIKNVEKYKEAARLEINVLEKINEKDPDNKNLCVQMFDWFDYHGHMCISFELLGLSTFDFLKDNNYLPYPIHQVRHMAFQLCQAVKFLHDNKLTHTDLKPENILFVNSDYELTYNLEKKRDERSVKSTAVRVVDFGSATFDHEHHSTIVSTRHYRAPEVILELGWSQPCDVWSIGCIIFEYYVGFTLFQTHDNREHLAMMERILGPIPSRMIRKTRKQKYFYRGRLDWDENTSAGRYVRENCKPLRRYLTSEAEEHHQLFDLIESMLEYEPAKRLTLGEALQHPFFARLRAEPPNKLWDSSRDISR

Variant	effect of a mutation on the interaction
E295K	disrupting interaction strength

Variants of: B1
Conditions: with sat1_human SAT1, P21673
Sequence of sat1_human SAT1, P21673 (P21673 whole entry): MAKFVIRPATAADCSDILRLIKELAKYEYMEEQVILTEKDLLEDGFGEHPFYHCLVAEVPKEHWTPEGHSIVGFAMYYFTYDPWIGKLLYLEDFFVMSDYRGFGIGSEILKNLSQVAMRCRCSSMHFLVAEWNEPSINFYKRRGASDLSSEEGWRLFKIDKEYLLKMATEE

Variant	effect of a mutation on the interaction
E295K	disrupting interaction strength

Variants of: B1
Conditions: with neca2_human NECAB2, Q7Z6G3
Sequence of neca2_human NECAB2, Q7Z6G3 (Q7Z6G3 whole entry): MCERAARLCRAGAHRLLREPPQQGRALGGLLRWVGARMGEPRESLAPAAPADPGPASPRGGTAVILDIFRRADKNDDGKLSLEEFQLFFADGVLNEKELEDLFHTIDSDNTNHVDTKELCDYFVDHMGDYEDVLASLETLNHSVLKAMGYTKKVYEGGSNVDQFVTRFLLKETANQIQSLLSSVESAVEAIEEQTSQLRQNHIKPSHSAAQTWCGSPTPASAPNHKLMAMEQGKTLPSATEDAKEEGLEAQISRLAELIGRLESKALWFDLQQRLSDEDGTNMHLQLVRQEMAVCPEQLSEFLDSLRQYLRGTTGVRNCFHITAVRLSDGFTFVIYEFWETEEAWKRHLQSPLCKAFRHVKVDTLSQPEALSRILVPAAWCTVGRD

Variant	effect of a mutation on the interaction
E295K	disrupting interaction strength

Variants of: B1
Conditions: with tri23_human TRIM23, P36406
Sequence of tri23_human TRIM23, P36406 (P36406 whole entry): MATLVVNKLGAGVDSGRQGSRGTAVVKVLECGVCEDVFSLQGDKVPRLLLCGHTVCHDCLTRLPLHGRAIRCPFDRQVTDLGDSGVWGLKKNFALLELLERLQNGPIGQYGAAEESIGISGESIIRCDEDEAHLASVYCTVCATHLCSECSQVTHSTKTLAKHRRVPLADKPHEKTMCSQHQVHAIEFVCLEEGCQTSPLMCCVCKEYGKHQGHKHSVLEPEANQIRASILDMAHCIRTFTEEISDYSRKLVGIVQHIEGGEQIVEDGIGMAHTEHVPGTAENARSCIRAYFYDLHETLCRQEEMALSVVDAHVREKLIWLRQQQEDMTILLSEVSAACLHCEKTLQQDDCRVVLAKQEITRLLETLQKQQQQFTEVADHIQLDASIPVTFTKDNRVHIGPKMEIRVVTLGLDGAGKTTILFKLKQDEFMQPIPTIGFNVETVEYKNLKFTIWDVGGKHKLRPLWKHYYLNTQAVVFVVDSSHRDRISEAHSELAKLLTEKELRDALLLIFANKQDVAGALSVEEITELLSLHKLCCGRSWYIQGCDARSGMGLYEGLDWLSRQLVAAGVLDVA

Variant	effect of a mutation on the interaction
E295K	disrupting interaction strength

Variants of: B1
Conditions: with mr1l1_human MRFAP1L1, Q96HT8
Sequence of mr1l1_human MRFAP1L1, Q96HT8 (Q96HT8 whole entry): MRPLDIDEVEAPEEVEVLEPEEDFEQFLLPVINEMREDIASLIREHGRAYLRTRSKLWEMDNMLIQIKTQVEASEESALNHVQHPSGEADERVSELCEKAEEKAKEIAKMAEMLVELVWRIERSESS

Variant	effect of a mutation on the interaction
E295K	disrupting interaction strength

Variants of: B1
Conditions: with ndk7_human NME7, Q9Y5B8
Sequence of ndk7_human NME7, Q9Y5B8 (Q9Y5B8 whole entry): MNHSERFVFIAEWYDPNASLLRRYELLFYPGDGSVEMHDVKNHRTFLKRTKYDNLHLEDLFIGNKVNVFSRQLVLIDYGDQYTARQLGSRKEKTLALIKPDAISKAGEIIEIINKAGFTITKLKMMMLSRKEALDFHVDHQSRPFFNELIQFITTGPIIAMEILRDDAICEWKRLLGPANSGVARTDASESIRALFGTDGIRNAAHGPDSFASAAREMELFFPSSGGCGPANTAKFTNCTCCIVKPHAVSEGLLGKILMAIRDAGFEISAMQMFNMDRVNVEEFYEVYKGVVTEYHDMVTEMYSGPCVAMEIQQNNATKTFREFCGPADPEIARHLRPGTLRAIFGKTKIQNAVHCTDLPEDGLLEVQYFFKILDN

Variant	effect of a mutation on the interaction
E295K	disrupting interaction strength
